Earlier results, collected in US20080279765A1, “Novel Imaging Agents for Fibrosis” (priority 2005, published 2008).
Where two headings read alike, the source gives them in different places.

Experiments:
M6P receptor [1] = biological target: T1, M6P receptor (Homo sapiens, UniProt P11717); details: pH 7.4; read-out: Kd of binding to the M6P receptor
M6P receptor [2] = biological target: T1, M6P receptor; details: site on M6P receptor distinct from the IGF-II binding site

T1 sequence (P11717 41-2491): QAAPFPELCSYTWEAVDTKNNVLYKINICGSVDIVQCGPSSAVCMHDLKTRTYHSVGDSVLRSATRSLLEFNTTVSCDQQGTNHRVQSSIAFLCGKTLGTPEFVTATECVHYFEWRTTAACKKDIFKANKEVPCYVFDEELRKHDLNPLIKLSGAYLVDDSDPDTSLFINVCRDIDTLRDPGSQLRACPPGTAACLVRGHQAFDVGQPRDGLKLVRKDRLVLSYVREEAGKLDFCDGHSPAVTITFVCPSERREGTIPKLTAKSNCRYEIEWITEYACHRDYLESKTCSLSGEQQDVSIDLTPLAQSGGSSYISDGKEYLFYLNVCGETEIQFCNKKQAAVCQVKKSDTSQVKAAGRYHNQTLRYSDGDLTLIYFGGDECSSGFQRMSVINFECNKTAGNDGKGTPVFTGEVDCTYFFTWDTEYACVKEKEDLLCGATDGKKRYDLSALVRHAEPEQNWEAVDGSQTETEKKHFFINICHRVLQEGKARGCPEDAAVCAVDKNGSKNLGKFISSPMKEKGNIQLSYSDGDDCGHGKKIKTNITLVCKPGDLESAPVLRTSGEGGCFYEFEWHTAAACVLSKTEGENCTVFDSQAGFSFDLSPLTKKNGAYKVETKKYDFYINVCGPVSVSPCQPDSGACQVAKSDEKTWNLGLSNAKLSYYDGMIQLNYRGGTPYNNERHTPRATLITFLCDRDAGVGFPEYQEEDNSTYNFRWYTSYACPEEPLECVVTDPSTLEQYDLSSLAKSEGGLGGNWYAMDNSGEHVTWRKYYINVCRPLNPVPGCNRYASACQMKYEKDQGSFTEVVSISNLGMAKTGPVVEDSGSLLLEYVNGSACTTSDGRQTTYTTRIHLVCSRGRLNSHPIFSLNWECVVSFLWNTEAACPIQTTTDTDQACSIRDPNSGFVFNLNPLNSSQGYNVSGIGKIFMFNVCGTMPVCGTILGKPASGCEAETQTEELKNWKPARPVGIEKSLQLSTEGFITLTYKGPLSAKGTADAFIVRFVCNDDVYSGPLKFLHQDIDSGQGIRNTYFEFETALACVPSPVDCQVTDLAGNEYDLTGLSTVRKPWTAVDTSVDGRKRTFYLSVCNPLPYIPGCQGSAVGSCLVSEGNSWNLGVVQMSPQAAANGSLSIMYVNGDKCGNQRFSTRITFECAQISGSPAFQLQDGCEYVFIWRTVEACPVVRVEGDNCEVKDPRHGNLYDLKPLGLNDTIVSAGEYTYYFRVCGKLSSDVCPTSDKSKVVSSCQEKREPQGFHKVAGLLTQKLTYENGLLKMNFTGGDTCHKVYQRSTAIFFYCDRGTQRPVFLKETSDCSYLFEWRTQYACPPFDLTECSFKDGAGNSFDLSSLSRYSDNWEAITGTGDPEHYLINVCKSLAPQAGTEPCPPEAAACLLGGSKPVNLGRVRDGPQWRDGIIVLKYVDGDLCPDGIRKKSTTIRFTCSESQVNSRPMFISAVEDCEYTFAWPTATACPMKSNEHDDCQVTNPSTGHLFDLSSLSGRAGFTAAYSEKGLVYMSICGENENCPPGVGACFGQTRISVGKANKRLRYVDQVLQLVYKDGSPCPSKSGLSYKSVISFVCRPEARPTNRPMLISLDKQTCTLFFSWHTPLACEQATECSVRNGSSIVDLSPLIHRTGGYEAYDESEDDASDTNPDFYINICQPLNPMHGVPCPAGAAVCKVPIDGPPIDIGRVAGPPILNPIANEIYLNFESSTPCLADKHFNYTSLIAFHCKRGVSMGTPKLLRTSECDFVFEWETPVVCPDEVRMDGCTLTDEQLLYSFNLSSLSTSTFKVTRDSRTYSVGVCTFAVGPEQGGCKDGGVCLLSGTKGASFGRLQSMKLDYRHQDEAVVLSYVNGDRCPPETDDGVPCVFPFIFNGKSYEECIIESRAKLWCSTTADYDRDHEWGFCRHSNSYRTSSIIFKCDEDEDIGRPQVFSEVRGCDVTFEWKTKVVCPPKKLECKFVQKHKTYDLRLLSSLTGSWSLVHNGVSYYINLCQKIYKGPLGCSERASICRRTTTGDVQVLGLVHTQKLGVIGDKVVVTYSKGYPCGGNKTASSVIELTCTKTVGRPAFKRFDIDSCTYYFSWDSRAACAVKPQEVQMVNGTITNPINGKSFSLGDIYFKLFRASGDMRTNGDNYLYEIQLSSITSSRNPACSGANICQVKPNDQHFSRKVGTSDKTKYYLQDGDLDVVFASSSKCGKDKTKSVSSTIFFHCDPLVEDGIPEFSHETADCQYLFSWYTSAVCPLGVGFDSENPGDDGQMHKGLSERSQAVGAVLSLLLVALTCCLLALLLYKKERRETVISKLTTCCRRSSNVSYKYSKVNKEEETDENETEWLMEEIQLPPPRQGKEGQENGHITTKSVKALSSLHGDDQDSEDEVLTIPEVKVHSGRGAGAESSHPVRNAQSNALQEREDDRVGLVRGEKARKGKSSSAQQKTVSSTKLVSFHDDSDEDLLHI

Row | Kd (M6P receptor [1]) | Kd (M6P receptor [2]) | Substance
1 | 0.3 to 14 nM | – | IGF-II: non-glycosylated single chain of 67 amino acid residues, SEQ ID NO. 1
2 | – | 2.4 nM | retinoic acid
